Results as given in patent US20140271457A1 (AbbVie / Abbott, published 2014).
Where a chain is given by its changes, count along the chain named.

B1: DVD2794 (bispecific antibody, IgG1)
VH: EVQLVQSGAEVKKPGASVKVSCKASGYTFANYGIIWVRQAPGQGLEWMGWINTYTGKPTYAQKFQGRVTMTTDTSTSTAYMELSSLRSEDTAVYYCARKLFTTMDVTDNAMDYWGQGTTVTVSSASTKGPEVQLVQSGAEVKKPGASVKVSCKASGYTFTKYWLGWVRQAPGQGLEWMGDIYPGYDYTHYNEKFKDRVTLTTDTSTSTAYMELRSLRSDDTAVYYCARSDGSSTYWGQGTLVTVSS
VL: DIQMTQSPSSLSASVGDRVTITCRASQDISQYLNWYQQKPGKAPKLLIYYTSRLQSGVPSRFSGSGSGTDFTLTISSLQPEDFATYFCQQGNTWPPTFGQGTKLEIKRTVAAPDVLMTQTPLSLPVTPGEPASISCTSSQNIVHSNGNTYLEWYLQKPGQSPQLLIYKVSNRFSGVPDRFSGSGSGTDFTLKISRVEAEDVGVYYCFQVSHVPYTFGGGTKVEIKR
B2: DVD2796 (bispecific antibody, IgG1)
VH: B1 VH
VL: DIQMTQSPSSLSASVGDRVTITCRASQDISQYLNWYQQKPGKAPKLLIYYTSRLQSGVPSRFSGSGSGTDFTLTISSLQPEDFATYFCQQGNTWPPTFGQGTKLEIKRTVAAPSVFIFPPDVLMTQTPLSLPVTPGEPASISCTSSQNIVHSNGNTYLEWYLQKPGQSPQLLIYKVSNRFSGVPDRFSGSGSGTDFTLKISRVEAEDVGVYYCFQVSHVPYTFGGGTKVEIKR
B3: DVD2797 (bispecific antibody, IgG1)
VH: EVQLVQSGAEVKKPGASVKVSCKASGYTFANYGIIWVRQAPGQGLEWMGWINTYTGKPTYAQKFQGRVTMTTDTSTSTAYMELSSLRSEDTAVYYCARKLFTTMDVTDNAMDYWGQGTTVTVSSASTKGPSVFPLAPEVQLVQSGAEVKKPGASVKVSCKASGYTFTKYWLGWVRQAPGQGLEWMGDIYPGYDYTHYNEKFKDRVTLTTDTSTSTAYMELRSLRSDDTAVYYCARSDGSSTYWGQGTLVTVSS
VL: B1 VL
B4: DVD3019 (bispecific antibody, IgG1)
VH: B1 VH with A30N, T102N, M104V, D105A
VL: B1 VL with S30E, Q31N, W94Q
B5: DVD3021 (bispecific antibody, IgG1)
VH: B1 VH with A30N, T102N, M104V, D105A
VL: B2 VL with S30E, Q31N, W94Q
B6: DVD2752 (bispecific antibody, IgG1)
VH: EVQLVQSGAEVKKPGASVKVSCKASGYTFTKYWLGWVRQAPGQGLEWMGDIYPGYDYTHYNEKFKDRVTLTTDTSTSTAYMELRSLRSDDTAVYYCARSDGSSTYWGQGTLVTVSSASTKGPSVFPLAPEVQLVESGGGLVQPGGSLRLSCAASGFTFSNYGVEWVRQAPGKGLEWVSGIWADGSTHYADTVKSRFTISRDNSKNTLYLQMNSLRAEDTAVYYCAREWQHGPVAYWGQGTLVTVSS
VL: DVLMTQTPLSLPVTPGEPASISCTSSQNIVHSNGNTYLEWYLQKPGQSPQLLIYKVSNRFSGVPDRFSGSGSGTDFTLKISRVEAEDVGVYYCFQVSHVPYTFGGGTKVEIKRTVAAPDIQMTQSPSSLSASVGDRVTITCKASQLVSSAVAWYQQKPGKAPKLLIYWASTLHTGVPSRFSGSGSGTDFTLTISSLQPEDFATYYCQQHYRTPFTFGQGTKLEIKR
B7: DVD2799 (bispecific antibody, IgG1)
VH: EVQLVQSGAEVKKPGASVKVSCKASGYTFTKYWLGWVRQAPGQGLEWMGDIYPGYDYTHYNEKFKDRVTLTTDTSTSTAYMELRSLRSDDTAVYYCARSDGSSTYWGQGTLVTVSSASTKGPEVQLVQSGAEVKKPGASVKVSCKASGYTFANYGIIWVRQAPGQGLEWMGWINTYTGKPTYAQKFQGRVTMTTDTSTSTAYMELSSLRSEDTAVYYCARKLFTTMDVTDNAMDYWGQGTTVTVSS
VL: DVLMTQTPLSLPVTPGEPASISCTSSQNIVHSNGNTYLEWYLQKPGQSPQLLIYKVSNRFSGVPDRFSGSGSGTDFTLKISRVEAEDVGVYYCFQVSHVPYTFGGGTKVEIKRTVAAPDIQMTQSPSSLSASVGDRVTITCRASQDISQYLNWYQQKPGKAPKLLIYYTSRLQSGVPSRFSGSGSGTDFTLTISSLQPEDFATYFCQQGNTWPPTFGQGTKLEIKR
B8: DVD2802 (bispecific antibody, IgG1)
VH: EVQLVQSGAEVKKPGASVKVSCKASGYTFTKYWLGWVRQAPGQGLEWMGDIYPGYDYTHYNEKFKDRVTLTTDTSTSTAYMELRSLRSDDTAVYYCARSDGSSTYWGQGTLVTVSSASTKGPSVFPLAPEVQLVQSGAEVKKPGASVKVSCKASGYTFANYGIIWVRQAPGQGLEWMGWINTYTGKPTYAQKFQGRVTMTTDTSTSTAYMELSSLRSEDTAVYYCARKLFTTMDVTDNAMDYWGQGTTVTVSS
VL: B7 VL
B9: DVD2801 (bispecific antibody, IgG1)
VH: B7 VH
VL: DVLMTQTPLSLPVTPGEPASISCTSSQNIVHSNGNTYLEWYLQKPGQSPQLLIYKVSNRFSGVPDRFSGSGSGTDFTLKISRVEAEDVGVYYCFQVSHVPYTFGGGTKVEIKRTVAAPSVFIFPPDIQMTQSPSSLSASVGDRVTITCRASQDISQYLNWYQQKPGKAPKLLIYYTSRLQSGVPSRFSGSGSGTDFTLTISSLQPEDFATYFCQQGNTWPPTFGQGTKLEIKR
B10: DVD2793 (bispecific antibody, IgG1)
VH: EVQLVQSGAEVKKPGASVKVSCKASGYTFANYGIIWVRQAPGQGLEWMGWINTYTGKPTYAQKFQGRVTMTTDTSTSTAYMELSSLRSEDTAVYYCARKLFTTMDVTDNAMDYWGQGTTVTVSSGGGGSGGGGSEVQLVQSGAEVKKPGASVKVSCKASGYTFTKYWLGWVRQAPGQGLEWMGDIYPGYDYTHYNEKFKDRVTLTTDTSTSTAYMELRSLRSDDTAVYYCARSDGSSTYWGQGTLVTVSS
VL: DIQMTQSPSSLSASVGDRVTITCRASQDISQYLNWYQQKPGKAPKLLIYYTSRLQSGVPSRFSGSGSGTDFTLTISSLQPEDFATYFCQQGNTWPPTFGQGTKLEIKRGGSGGGGSGDVLMTQTPLSLPVTPGEPASISCTSSQNIVHSNGNTYLEWYLQKPGQSPQLLIYKVSNRFSGVPDRFSGSGSGTDFTLKISRVEAEDVGVYYCFQVSHVPYTFGGGTKVEIKR
B11: DVD3018 (bispecific antibody, IgG1)
VH: B10 VH with A30N, T102N, M104V, D105A
VL: B10 VL with S30E, Q31N, W94Q
B12: DVD2798 (bispecific antibody, IgG1)
VH: EVQLVQSGAEVKKPGASVKVSCKASGYTFTKYWLGWVRQAPGQGLEWMGDIYPGYDYTHYNEKFKDRVTLTTDTSTSTAYMELRSLRSDDTAVYYCARSDGSSTYWGQGTLVTVSSGGGGSGGGGSEVQLVQSGAEVKKPGASVKVSCKASGYTFANYGIIWVRQAPGQGLEWMGWINTYTGKPTYAQKFQGRVTMTTDTSTSTAYMELSSLRSEDTAVYYCARKLFTTMDVTDNAMDYWGQGTTVTVSS
VL: DVLMTQTPLSLPVTPGEPASISCTSSQNIVHSNGNTYLEWYLQKPGQSPQLLIYKVSNRFSGVPDRFSGSGSGTDFTLKISRVEAEDVGVYYCFQVSHVPYTFGGGTKVEIKRGGSGGGGSGDIQMTQSPSSLSASVGDRVTITCRASQDISQYLNWYQQKPGKAPKLLIYYTSRLQSGVPSRFSGSGSGTDFTLTISSLQPEDFATYFCQQGNTWPPTFGQGTKLEIKR
B13: DVD2748 (bispecific antibody, IgG1)
VH: EVQLVQSGAEVKKPGASVKVSCKASGYTFTKYWLGWVRQAPGQGLEWMGDIYPGYDYTHYNEKFKDRVTLTTDTSTSTAYMELRSLRSDDTAVYYCARSDGSSTYWGQGTLVTVSSGGGGSGGGGSEVQLVESGGGLVQPGGSLRLSCAASGFTFSNYGVEWVRQAPGKGLEWVSGIWADGSTHYADTVKSRFTISRDNSKNTLYLQMNSLRAEDTAVYYCAREWQHGPVAYWGQGTLVTVSS
VL: DVLMTQTPLSLPVTPGEPASISCTSSQNIVHSNGNTYLEWYLQKPGQSPQLLIYKVSNRFSGVPDRFSGSGSGTDFTLKISRVEAEDVGVYYCFQVSHVPYTFGGGTKVEIKRGGSGGGGSGDIQMTQSPSSLSASVGDRVTITCKASQLVSSAVAWYQQKPGKAPKLLIYWASTLHTGVPSRFSGSGSGTDFTLTISSLQPEDFATYYCQQHYRTPFTFGQGTKLEIKR

Molecular target: Recombinant Human TNF-α/TNFSF1A (human, UniProt P01375 77-233)
Sequence (P01375 77-233 limits assumed): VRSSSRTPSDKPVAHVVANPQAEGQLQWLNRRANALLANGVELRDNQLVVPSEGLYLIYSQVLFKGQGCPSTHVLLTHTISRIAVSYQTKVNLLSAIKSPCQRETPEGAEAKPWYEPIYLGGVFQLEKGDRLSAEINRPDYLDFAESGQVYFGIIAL
Experiment: cell-based or functional assay

Binder | N-Terminal VD huTNFα Neutralization Assay IC50 | C-Terminal VD huTNFα Neutralization Assay IC50
B1 | 3 pM | –
B2 | 10 pM | –
B3 | 2 pM | –
B4 | 9 pM | –
B5 | 7 pM | –
B6 | – | 384 pM
B7 | – | 3080 pM
B8 | – | 195 pM
B9 | – | 116 pM
B10 | 6 pM | –
B11 | 8 pM | –
B12 | – | 381 pM
B13 | – | 2880 pM
